Among the data in patent CN116554324A (SANYOU BIO INC, dated 2023) are binding result and EC50 values, retold here.

Assay [1] addresses T1, Mus4-1BB-hFc (mouse; human, UniProt P20334 24-187).
T1 construct: range 24-187; also called 鼠4-1BB抗原蛋白Mus4-1BB-hFc; not shown: Fc tag made by the same method as for hu4-1BB-hFc (human IgG1 Fc fragment)
T1 sequence (looked up): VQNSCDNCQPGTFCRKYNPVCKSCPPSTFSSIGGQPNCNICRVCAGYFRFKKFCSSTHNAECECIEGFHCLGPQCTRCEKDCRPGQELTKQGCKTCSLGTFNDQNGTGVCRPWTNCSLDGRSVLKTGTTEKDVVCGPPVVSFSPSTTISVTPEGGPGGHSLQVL
As to the kind of experiment: ELISA, Mus4-1BB-hFc coated at 2 μg/mL, anti-human kappa+lambda-HRP. Background: An ELISA detects its analyte on a solid surface through an enzyme-linked reagent.

The target in assay [2] is T2, hu4-1BB-His (human, UniProt Q07011 24-186).
T2 construct: range 24-186; Expressed in ExpiCHO and purified on Ni beads; also called 抗原蛋白hu4-1BB-His; 人4-1BB抗原蛋白; not shown: C-terminal His tag
As to the kind of experiment: ELISA, hu4-1BB-His coated at 2 μg/mL, anti-human IgG Fc-HRP.

Assay [3] concerns the target T3, 生物素化的hu4-1BB-hFc (human, UniProt Q07011 24-186, EZ-Link Sulfo-NHS-LC-biotin label; the sites are not stated).
T3 construct: range 24-186; also called 生物素标记的hu4-1BB-hFc抗原蛋白; biotinylated hu4-1BB-hFc; not shown: human IgG1 Fc fragment fused at the C-terminus
The experiment in a line: ELISA.

Assay [4] deals with T4, hu4-1BB-hFc (human, UniProt Q07011 24-186).
T4 construct: range 24-186; also called 4-1BB-Fc; not shown: human IgG1 Fc fragment fused at the C-terminus
As to the kind of experiment: ELISA.

Assay [5] addresses T5, 人4-1BB (Uniprot编号Q07011), expressed on cells (human, UniProt Q07011 24-255).
T5 construct: whole, on cells; also called hu4-1BB-CHO; 人4-1BB过表达细胞
The experiment in a line: flow cytometry on hu4-1BB-CHO cells. (A flow cytometer gives signals particle by particle.)

T5 sequence (Q07011 24-255): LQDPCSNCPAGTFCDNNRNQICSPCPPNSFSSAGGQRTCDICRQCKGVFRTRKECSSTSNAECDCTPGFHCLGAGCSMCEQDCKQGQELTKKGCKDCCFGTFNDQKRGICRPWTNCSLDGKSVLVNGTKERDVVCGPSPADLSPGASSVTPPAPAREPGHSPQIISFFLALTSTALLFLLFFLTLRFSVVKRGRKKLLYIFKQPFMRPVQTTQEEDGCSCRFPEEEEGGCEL

B1: 99-2-35 (antibody, human IgG4 S228P, kappa, V domains shown)
VH: EVQLLESGGGLVQPGGSLRLSCAASGFTFSSYEMNWVRQAPGKGLEWVSYISSSGSTIYYADSVKGRFTISRDNAKNSLYLQMNSLRAEDTAVYYCARDFNGGYSYYPIAFDIWGQGTMVTVSS
VL: EIVLTQSPATLSLSPGERATLSCRASQSVSSYLAWYQQKPGQAPRLLIYDASNRATGIPARFSGSGSGTDFTLTISSLEPEDFAVYYCQQRSNWPPMYTFGQGTKLEIKR
notes: also called 抗体99-2-35; 母本抗体99-2-35
For the molecule B1, the binding result in assay [1] is reported as “binds”. The molecule also displayed an EC50 in assay [2] of 0.35 µg/mL.

B2: 99-2-17 (antibody, human IgG4 S228P, lambda, V domains shown)
VH: QVQLVQSGGGLVQPGGSLRLSCSASGFTFSSYAMHWVRQAPGKGLEYVSAISSNGGSTYYADSVKGRFTISRDNSKNTLYLQMSSLRAEDTAVYYCVKGSGWSPIDAFDIWGQGTMVTVSS
VL: QSALTQPPSVSGAPGQRVTISCTGSSSNIGAGYDVHWYQQLPGTAPKLLIYGNSNRPSGVPDRFSGSKSGTSASLAITGLQAEDEADYYCQSYDSSLSGSGAVFGGGTQLTVLG
notes: also called 抗体99-2-17; 母本抗体99-2-17
On to B2, for which, in assay [1], the binding result is on record as “binds”. In assay [2], this molecule came in with an EC50 of 0.411 µg/mL.

B3: Ag10058 (antibody, human IgG4 S228P, kappa, V domains shown)
VH: EVQLVESGGGLVQPGGSLRLSCAASGFSLSTSGVGVGWIRQAPGKGLEWLALIDWDDDKYYSPSLKSRLTISRDNSKNTLYLQLNSLRAEDTAVYYCARGGSDTVLGDWFAYWGQGTLVTVSS
VL: DIQLTQSPSSLSASVGDRVTITCRASQSVSPYLAWYQQKPGKAPKLLIYDASSLESGVPSRFSGSGSGTDFTLTISSLQPEDFATYYCQQGYSLWTFGQGTKVEIKR
notes: also called 阳性对照抗体Ag10058
For B3, the binding result in assay [3] and in assay [4] was “binds” in each case.

B4: Ag10131 (antibody, human IgG4 S228P, kappa, V domains shown)
VH: EVQLVESGGGLVQPGGSLRLSCAASGFSLSTGGVGVGWIRQAPGKGLEWLALIDWADDKYYSPSLKSRLTISRDNSKNTLYLQLNSLRAEDTAVYYCARGGSDTVIGDWFAYWGQGTLVTVSS
VL: DIQLTQSPSSLSASVGDRVTITCRASQSIGSYLAWYQQKPGKAPKLLIYDASNLETGVPSRFSGSGSGTDFTLTISSLQPEDFATYYCQQGYYLWTFGQGTKVEIKR
notes: also called 阳性对照抗体Ag10131; 对照抗体Ag10131
On to B4, for which the binding result in assay [5], in assay [2], in assay [3] and in assay [4] was “binds” in each case.

As a reminder, the EC50 is the concentration giving half of the maximal effect. Read a high EC50 as a less potent agent.
